Patent publication US20210130436A1

Tests used:
PD-L1 (human) = PD-L1 (human) (UniProt Q9NZQ7); experiment: cell-based or functional assay
CD28 (human) = CD28 (human) (UniProt P10747); experiment: cell-based or functional assay

Chain of PD-L1 (human) (Q9NZQ7 19-290): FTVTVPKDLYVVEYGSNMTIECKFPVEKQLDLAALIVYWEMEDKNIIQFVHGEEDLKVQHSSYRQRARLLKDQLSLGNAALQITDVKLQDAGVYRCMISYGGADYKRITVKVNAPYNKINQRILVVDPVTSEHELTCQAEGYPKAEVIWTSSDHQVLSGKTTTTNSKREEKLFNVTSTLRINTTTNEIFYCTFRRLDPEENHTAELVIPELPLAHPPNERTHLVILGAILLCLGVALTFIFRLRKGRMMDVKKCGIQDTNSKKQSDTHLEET
Chain of WT CD80 ECD-Fc (inert) (Fc fusion) (chain): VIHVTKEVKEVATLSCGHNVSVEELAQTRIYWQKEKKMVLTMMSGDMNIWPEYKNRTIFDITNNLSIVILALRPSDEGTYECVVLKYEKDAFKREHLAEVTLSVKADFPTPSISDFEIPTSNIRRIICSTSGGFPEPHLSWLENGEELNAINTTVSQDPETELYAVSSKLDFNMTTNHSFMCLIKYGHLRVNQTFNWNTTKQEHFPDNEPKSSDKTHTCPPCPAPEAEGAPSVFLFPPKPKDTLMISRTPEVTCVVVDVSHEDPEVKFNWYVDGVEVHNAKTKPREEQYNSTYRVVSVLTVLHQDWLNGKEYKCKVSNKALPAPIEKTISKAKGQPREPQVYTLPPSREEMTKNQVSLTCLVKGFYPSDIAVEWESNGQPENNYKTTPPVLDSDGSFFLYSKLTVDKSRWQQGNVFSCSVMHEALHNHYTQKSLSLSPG

Row | Substance | IL-2 release, primary T cells; K562/OKT3/PD-L1; 10 nM (PD-L1 (human)) | RLU, Jurkat/IL2 reporter; K562/OKT3/PD-L1 aAPC, Combination of FcR and/or PD-L1 Dependent Cross-Linking; 0.6 nM (PD-L1 (human)) [RLU] | RLU, Jurkat/IL2 reporter; K562/OKT3/PD-L1 aAPC, Combination of FcR and/or PD-L1 Dependent Cross-Linking; 1.9 nM (PD-L1 (human)) [RLU] | RLU, Jurkat/IL2 reporter; K562/OKT3/PD-L1 aAPC, Combination of FcR and/or PD-L1 Dependent Cross-Linking; 5.6 nM (PD-L1 (human)) [RLU] | RLU, Jurkat/IL2 reporter; K562/OKT3/PD-L1 aAPC, Combination of FcR and/or PD-L1 Dependent Cross-Linking; 16.7 nM (PD-L1 (human)) [RLU] | RLU, Jurkat/IL2 reporter; K562/OKT3/PD-L1 aAPC, Combination of FcR and/or PD-L1 Dependent Cross-Linking; 50 nM (PD-L1 (human)) [RLU] | IL-2 release, primary T cells; K562/OKT3 (No PD-L1); 1 nM (CD28 (human)) | IL-2 release, primary T cells; K562/OKT3 (No PD-L1); 10 nM (CD28 (human)) | IL-2 release, primary T cells; K562/OKT3 (No PD-L1); 100 nM (CD28 (human)) | RLU, Jurkat/IL2 reporter; K562/OKT3 aAPC, FcR Dependent Cross-Linking (No PD-L1); 0.6 nM (CD28 (human)) [RLU] | RLU, Jurkat/IL2 reporter; K562/OKT3 aAPC, FcR Dependent Cross-Linking (No PD-L1); 1.9 nM (CD28 (human)) [RLU] | RLU, Jurkat/IL2 reporter; K562/OKT3 aAPC, FcR Dependent Cross-Linking (No PD-L1); 5.6 nM (CD28 (human)) [RLU] | RLU, Jurkat/IL2 reporter; K562/OKT3 aAPC, FcR Dependent Cross-Linking (No PD-L1); 16.7 nM (CD28 (human)) [RLU] | RLU, Jurkat/IL2 reporter; K562/OKT3 aAPC, FcR Dependent Cross-Linking (No PD-L1); 50 nM (CD28 (human)) [RLU] | other results
1 | CD80 IgV-Fc V22A/E35D/M47L/A71G (from UniProt P33681 35-141) (Fc fusion) |  |  |  |  |  |  |  |  |  |  |  |  |  |  | Jurkat/IL2 + CHO/OKT3/PD-L1 reporter assay, RLU at CD80 Conc 5.0 nM (PD-L1 (human)): 2580 RLU
2 | WT CD80 IgV-Fc (effector) (Fc fusion) |  | 662 | 674 | 697 | 673 | 663 | 7170 | 7120 | 6200 | 1410 | 1350 | 1310 | 1210 | 1250 | 

Continued, in another order:

Row | IL-2 release, primary T cells; K562/OKT3/PD-L1; 10 nM (PD-L1 (human)) | RLU, Jurkat/IL2 reporter; K562/OKT3/PD-L1 aAPC, Combination of FcR and/or PD-L1 Dependent Cross-Linking; 0.6 nM (PD-L1 (human)) [RLU] | RLU, Jurkat/IL2 reporter; K562/OKT3/PD-L1 aAPC, Combination of FcR and/or PD-L1 Dependent Cross-Linking; 1.9 nM (PD-L1 (human)) [RLU] | RLU, Jurkat/IL2 reporter; K562/OKT3/PD-L1 aAPC, Combination of FcR and/or PD-L1 Dependent Cross-Linking; 5.6 nM (PD-L1 (human)) [RLU] | RLU, Jurkat/IL2 reporter; K562/OKT3/PD-L1 aAPC, Combination of FcR and/or PD-L1 Dependent Cross-Linking; 16.7 nM (PD-L1 (human)) [RLU] | RLU, Jurkat/IL2 reporter; K562/OKT3/PD-L1 aAPC, Combination of FcR and/or PD-L1 Dependent Cross-Linking; 50 nM (PD-L1 (human)) [RLU] | IL-2 release, primary T cells; K562/OKT3 (No PD-L1); 1 nM (CD28 (human)) | IL-2 release, primary T cells; K562/OKT3 (No PD-L1); 10 nM (CD28 (human)) | IL-2 release, primary T cells; K562/OKT3 (No PD-L1); 100 nM (CD28 (human)) | RLU, Jurkat/IL2 reporter; K562/OKT3 aAPC, FcR Dependent Cross-Linking (No PD-L1); 0.6 nM (CD28 (human)) [RLU] | RLU, Jurkat/IL2 reporter; K562/OKT3 aAPC, FcR Dependent Cross-Linking (No PD-L1); 1.9 nM (CD28 (human)) [RLU] | RLU, Jurkat/IL2 reporter; K562/OKT3 aAPC, FcR Dependent Cross-Linking (No PD-L1); 5.6 nM (CD28 (human)) [RLU] | RLU, Jurkat/IL2 reporter; K562/OKT3 aAPC, FcR Dependent Cross-Linking (No PD-L1); 16.7 nM (CD28 (human)) [RLU] | RLU, Jurkat/IL2 reporter; K562/OKT3 aAPC, FcR Dependent Cross-Linking (No PD-L1); 50 nM (CD28 (human)) [RLU] | Substance | other results
3 | 143 | 689 | 675 | 666 | 694 | 679 | 7040 | 6340 | 5510 | 1400 | 1390 | 1390 | 1370 | 1370 | Fc only Control (inert Fc) (from UniProt P0DOX5 218-448) | 
4 | 3110 |  |  |  |  |  | 11400 | 20200 | 23100 |  |  |  |  |  | WT CD80 ECD-Fc (effector) (from UniProt P33681 35-242) (Fc fusion) | IL-2 release, primary T cells; K562/OKT3/PD-L1; 1 nM (PD-L1 (human)): 507; IL-2 release, primary T cells; K562/OKT3/PD-L1; 100 nM (PD-L1 (human)): 8390
5 |  | 692 | 705 | 847 | 875 | 1520 | 8050 | 7020 | 6480 | 1340 | 1270 | 1480 | 1730 | 2200 | WT CD80 ECD-Fc (inert) (Fc fusion) | IL-2-luciferase RLU, Jurkat + CHO/OKT3/PD-L1 aAPC, 0.6 nM (CD28 (human)): 518 RLU; IL-2-luciferase RLU, Jurkat + CHO/OKT3/PD-L1 aAPC, 1.9 nM (CD28 (human)): 474 RLU; IL-2-luciferase RLU, Jurkat + CHO/OKT3/PD-L1 aAPC, 5.6 nM (CD28 (human)): 505 RLU; IL-2-luciferase RLU, Jurkat + CHO/OKT3/PD-L1 aAPC, 16.7 nM (CD28 (human)): 462 RLU; IL-2-luciferase RLU, Jurkat + CHO/OKT3 aAPC (no PD-L1), 5.6 nM (CD28 (human)): 436 RLU; IL-2-luciferase RLU, Jurkat + CHO/OKT3 aAPC (no PD-L1), 16.7 nM (CD28 (human)): 412 RLU; IL-2-luciferase RLU, Jurkat + CHO/OKT3 aAPC (no PD-L1), 50 nM (CD28 (human)): 420 RLU
